In the experiment the target is CD3E on the surface of Jurkat-NFAT-Luc cells (UniProt P07766). The experiment can be described thus: cell-based or functional assay.

These results are taken from US20250074996A1.

Chain of CD3E on the surface of Jurkat-NFAT-Luc cells (P07766 23-207): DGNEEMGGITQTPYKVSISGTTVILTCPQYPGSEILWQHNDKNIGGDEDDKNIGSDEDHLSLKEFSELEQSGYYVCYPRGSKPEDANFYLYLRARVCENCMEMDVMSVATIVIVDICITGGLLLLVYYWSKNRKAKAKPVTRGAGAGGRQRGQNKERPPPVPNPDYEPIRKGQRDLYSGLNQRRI

B1: hz11B7.5/SP34.24 (bispecific antibody, V domains shown)
VH 1: QVQLVQSGAEVKKPGSSVKVSCKASGYTFTTYTMHWVRQAPGQGLEWIGFIIPSSGYTSYNQNFKDKVTLTADKSTSTAYMELSSLRSEDTAVYFCTGGQARAYYPLDYWGQGTLVTVSS
VL 1: EIVMTQSPATLSVSPGERATLSCRASQSIGTTIHWYQQKPGQAPRLLIKYASESISGIPSRFSGSGSGTEFTLTISSLQSEDFAVYYCQQSYNWPRTFGGGTKVEIK
VH 2: EVQLVESGGGLVQPGGSLKLSCAASGFTFNTYAMNWVRQASGKGLEWVGRIRSKYNNYATYYADSVKDRFTISRDDSKSTLYLQMNSLKTEDTAVYYCARHGNFGQSYVSWFAYWGQGTTVTVSS
VL 2: QAVVTQEPSLTVSPGGTVTLTCRSSTGAVTTSNYANWVQQKPGQAPRGLIGGTNKRAPGVPARFSGSLLGDKAALTLLGAQPEDEAEYYCALWYSNLWVFGQGTKLTVL
The molecule B1 came in with an EC50 of Jurkat-NFAT-Luc luciferase activation; tumor cells 8226 of 5.39 pM, an EC50 of Jurkat-NFAT-Luc luciferase activation; tumor cells ARD of 2.04 pM, an EC50 of Jurkat-NFAT-Luc luciferase activation; tumor cells H929 of 2.72 pM and an EC50 of Jurkat-NFAT-Luc luciferase activation; tumor cells L363 of 2.79 pM. The molecule further gave an EC50 of Jurkat-NFAT-Luc luciferase activation; tumor cells MM.1S of 1.98 pM and an EC50 of Jurkat-NFAT-Luc luciferase activation; tumor cells U266 of 4.09 pM.
